The assay addresses ATP-binding cassette transporter A1 (ABCA1) on RAW 264.7 murine macrophage cells (murine) (UniProt P41233). Description: cell-based or functional assay.

Here are results for one substance from US20130137628A1.

Sequence of UniProt P41233 (P41233 whole entry): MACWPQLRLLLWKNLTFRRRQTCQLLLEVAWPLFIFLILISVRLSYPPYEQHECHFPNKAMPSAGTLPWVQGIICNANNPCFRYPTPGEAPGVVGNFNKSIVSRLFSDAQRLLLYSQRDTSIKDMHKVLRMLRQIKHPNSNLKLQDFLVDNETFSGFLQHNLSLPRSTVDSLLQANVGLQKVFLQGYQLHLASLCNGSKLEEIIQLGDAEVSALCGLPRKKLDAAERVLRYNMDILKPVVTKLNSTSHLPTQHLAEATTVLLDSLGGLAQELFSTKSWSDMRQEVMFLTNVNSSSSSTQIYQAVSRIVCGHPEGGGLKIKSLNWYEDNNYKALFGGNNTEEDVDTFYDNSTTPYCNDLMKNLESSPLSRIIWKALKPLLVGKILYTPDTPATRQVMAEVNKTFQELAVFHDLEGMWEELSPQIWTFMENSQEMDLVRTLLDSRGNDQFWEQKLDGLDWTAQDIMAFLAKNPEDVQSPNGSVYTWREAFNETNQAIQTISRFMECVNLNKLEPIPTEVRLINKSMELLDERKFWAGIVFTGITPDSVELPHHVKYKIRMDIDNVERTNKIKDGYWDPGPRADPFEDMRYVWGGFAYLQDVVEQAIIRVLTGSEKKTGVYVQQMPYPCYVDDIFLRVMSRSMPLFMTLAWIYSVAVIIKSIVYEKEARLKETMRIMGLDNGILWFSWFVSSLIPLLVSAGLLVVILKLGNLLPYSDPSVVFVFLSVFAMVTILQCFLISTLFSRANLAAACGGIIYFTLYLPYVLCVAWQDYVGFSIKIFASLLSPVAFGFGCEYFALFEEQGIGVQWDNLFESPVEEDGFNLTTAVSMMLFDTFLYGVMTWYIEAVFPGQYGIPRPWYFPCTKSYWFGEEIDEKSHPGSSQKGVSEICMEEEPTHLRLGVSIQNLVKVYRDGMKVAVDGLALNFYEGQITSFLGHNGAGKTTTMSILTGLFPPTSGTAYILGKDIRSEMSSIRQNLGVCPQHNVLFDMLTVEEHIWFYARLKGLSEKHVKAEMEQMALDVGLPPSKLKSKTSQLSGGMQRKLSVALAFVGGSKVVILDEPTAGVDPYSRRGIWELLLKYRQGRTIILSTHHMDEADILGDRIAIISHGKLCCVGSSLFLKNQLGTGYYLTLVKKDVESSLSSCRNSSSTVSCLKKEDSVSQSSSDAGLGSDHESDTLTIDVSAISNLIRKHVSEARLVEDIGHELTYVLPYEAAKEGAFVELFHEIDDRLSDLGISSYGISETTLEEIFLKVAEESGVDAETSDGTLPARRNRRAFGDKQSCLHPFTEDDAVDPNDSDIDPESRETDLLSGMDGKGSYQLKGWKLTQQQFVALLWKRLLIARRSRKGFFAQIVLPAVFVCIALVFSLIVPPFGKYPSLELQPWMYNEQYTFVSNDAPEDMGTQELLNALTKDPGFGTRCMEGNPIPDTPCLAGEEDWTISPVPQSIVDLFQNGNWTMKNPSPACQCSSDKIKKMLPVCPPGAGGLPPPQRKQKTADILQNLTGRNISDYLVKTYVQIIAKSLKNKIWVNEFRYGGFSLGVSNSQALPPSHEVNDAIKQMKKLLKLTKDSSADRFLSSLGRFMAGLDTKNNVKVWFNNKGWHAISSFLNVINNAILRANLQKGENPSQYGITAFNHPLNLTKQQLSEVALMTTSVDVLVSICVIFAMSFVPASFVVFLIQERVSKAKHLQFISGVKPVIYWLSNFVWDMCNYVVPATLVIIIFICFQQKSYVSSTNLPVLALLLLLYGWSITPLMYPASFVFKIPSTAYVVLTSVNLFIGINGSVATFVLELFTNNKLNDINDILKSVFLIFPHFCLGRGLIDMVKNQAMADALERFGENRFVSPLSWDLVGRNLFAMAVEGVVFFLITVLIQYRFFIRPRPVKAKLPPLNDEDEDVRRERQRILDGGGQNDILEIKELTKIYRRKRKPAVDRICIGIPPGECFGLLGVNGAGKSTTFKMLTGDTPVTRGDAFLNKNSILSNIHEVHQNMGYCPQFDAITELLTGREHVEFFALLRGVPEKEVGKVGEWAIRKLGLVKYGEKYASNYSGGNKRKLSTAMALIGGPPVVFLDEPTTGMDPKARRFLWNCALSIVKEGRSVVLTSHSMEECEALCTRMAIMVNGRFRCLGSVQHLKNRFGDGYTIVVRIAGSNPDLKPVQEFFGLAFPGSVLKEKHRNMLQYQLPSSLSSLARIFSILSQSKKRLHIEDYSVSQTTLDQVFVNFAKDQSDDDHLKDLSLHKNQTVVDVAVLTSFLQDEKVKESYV

“recombinant wild type ApoA1 after MPO/HOCl-mediated oxidative damage (from UniProt P02647 25-267)”: the ABCA-1-dependent cholesterol efflux ability (reduction upon MPO/HOCl-mediated oxidative damage), RAW 264.7 cells, [3H]-cholesterol was in the range of 75 to 80%.
